# According to patent EP4789680A1, “NOVEL PACE4 INHIBITOR AND USE THEREOF IN ANTI-OSTEOARTHRITIS” (Inflamax Pharmaceuticals Limited, priority 2023, dated 2025):
# *1 amine or outer side, *2 acyl side, *3 side chain or, on linkers, in order; H or OH if unused. Where a SMILES comes first, the peptide text is derived from it. Where no end group is shown, it is not given here. [ ]: non-standard residue; d: D form. Ala(piperidin-4-yl) = O=C([C@H](CC1CCN([*:3])CC1)N[*:1])[*:2]; Phe(4-guanidino) = N=C(N)Nc1ccc(C[C@H](N)C(=O)O)cc1; Phe(4-CF3) = N[C@@H](Cc1ccc(C(F)(F)F)cc1)C(=O)O
# B1: Ac-R-F(4-Guan)-K-R-dT-NH2 (peptide)
# peptide: Ac-R[Phe(4-guanidino)]KR[dT]-NH2
# SMILES: CC(=O)N[C@@H](CCCNC(=N)N)C(=O)N[C@@H](Cc1ccc(NC(=N)N)cc1)C(=O)N[C@@H](CCCCN)C(=O)N[C@@H](CCCNC(=N)N)C(=O)N[C@@H](C(N)=O)[C@H](C)O
# B2: Ac-R-F-K-R-dT-NH2 (peptide)
# peptide: Ac-RFKR[dT]-NH2
# SMILES: CC(=O)N[C@@H](CCCNC(=N)N)C(=O)N[C@@H](Cc1ccccc1)C(=O)N[C@@H](CCCCN)C(=O)N[C@@H](CCCNC(=N)N)C(=O)N[C@@H](C(N)=O)[C@H](C)O
# B3: Ac-R-F(4-CF3)-K-R-dT-NH2 (peptide)
# peptide: Ac-R[Phe(4-CF3)]KR[dT]-NH2
# SMILES: CC(=O)N[C@@H](CCCNC(=N)N)C(=O)N[C@@H](Cc1ccc(C(F)(F)F)cc1)C(=O)N[C@@H](CCCCN)C(=O)N[C@@H](CCCNC(=N)N)C(=O)N[C@@H](C(N)=O)[C@H](C)O
# B4: P-dR-R-A(4-Pip)-K-R-dT-NH2 (peptide)
# peptide: P[dR]R[Ala(piperidin-4-yl)]KR[dT]-NH2
# modifications: N-terminus assumed
# SMILES: C[C@H](O)[C@@H](NC(=O)[C@H](CCCNC(=N)N)NC(=O)[C@H](CCCCN)NC(=O)[C@H](CC1CCNCC1)NC(=O)[C@H](CCCNC(=N)N)NC(=O)[C@@H](CCCNC(=N)N)NC(=O)[C@@H]1CCCN1)C(N)=O
# B5: Ac-dR-R-F-K-R-dT-NH2 (peptide)
# peptide: Ac-[dR]RFKR[dT]-NH2
# SMILES: CC(=O)N[C@H](CCCNC(=N)N)C(=O)N[C@@H](CCCNC(=N)N)C(=O)N[C@@H](Cc1ccccc1)C(=O)N[C@@H](CCCCN)C(=O)N[C@@H](CCCNC(=N)N)C(=O)N[C@@H](C(N)=O)[C@H](C)O
# B6: Ac-R-F(4-CF3)-K-R-T-NH2 (peptide)
# peptide: Ac-R[Phe(4-CF3)]KRT-NH2
# SMILES: CC(=O)N[C@@H](CCCNC(=N)N)C(=O)N[C@@H](Cc1ccc(C(F)(F)F)cc1)C(=O)N[C@@H](CCCCN)C(=O)N[C@@H](CCCNC(=N)N)C(=O)N[C@H](C(N)=O)[C@@H](C)O
# B7: Ac-R-F(4-Guan)-K-R-T-NH2 (peptide)
# peptide: Ac-R[Phe(4-guanidino)]KRT-NH2
# SMILES: CC(=O)N[C@@H](CCCNC(=N)N)C(=O)N[C@@H](Cc1ccc(NC(=N)N)cc1)C(=O)N[C@@H](CCCCN)C(=O)N[C@@H](CCCNC(=N)N)C(=O)N[C@H](C(N)=O)[C@@H](C)O
# B8: Ac-R-R-F-K-R-dT-NH2 (peptide)
# peptide: Ac-RRFKR[dT]-NH2
# SMILES: CC(=O)N[C@@H](CCCNC(=N)N)C(=O)N[C@@H](CCCNC(=N)N)C(=O)N[C@@H](Cc1ccccc1)C(=O)N[C@@H](CCCCN)C(=O)N[C@@H](CCCNC(=N)N)C(=O)N[C@@H](C(N)=O)[C@H](C)O
# B9: Ac-dR-R-F(4-Guan)-K-R-dT-NH2 (peptide)
# peptide: Ac-[dR]R[Phe(4-guanidino)]KR[dT]-NH2
# SMILES: CC(=O)N[C@H](CCCNC(=N)N)C(=O)N[C@@H](CCCNC(=N)N)C(=O)N[C@@H](Cc1ccc(NC(=N)N)cc1)C(=O)N[C@@H](CCCCN)C(=O)N[C@@H](CCCNC(=N)N)C(=O)N[C@@H](C(N)=O)[C@H](C)O
# B10: P-dR-R-F-K-R-dT-NH2 (peptide)
# peptide: P[dR]RFKR[dT]-NH2
# modifications: N-terminus assumed
# SMILES: C[C@H](O)[C@@H](NC(=O)[C@H](CCCNC(=N)N)NC(=O)[C@H](CCCCN)NC(=O)[C@H](Cc1ccccc1)NC(=O)[C@H](CCCNC(=N)N)NC(=O)[C@@H](CCCNC(=N)N)NC(=O)[C@@H]1CCCN1)C(N)=O
# B11: P-dR-R-F(4-Guan)-K-R-dT-NH2 (peptide)
# peptide: P[dR]R[Phe(4-guanidino)]KR[dT]-NH2
# modifications: N-terminus assumed
# SMILES: C[C@H](O)[C@@H](NC(=O)[C@H](CCCNC(=N)N)NC(=O)[C@H](CCCCN)NC(=O)[C@H](Cc1ccc(NC(=N)N)cc1)NC(=O)[C@H](CCCNC(=N)N)NC(=O)[C@@H](CCCNC(=N)N)NC(=O)[C@@H]1CCCN1)C(N)=O
# B12: dP-dR-R-F-K-R-dT-NH2 (peptide)
# peptide: [dP][dR]RFKR[dT]-NH2
# modifications: N-terminus assumed
# SMILES: C[C@H](O)[C@@H](NC(=O)[C@H](CCCNC(=N)N)NC(=O)[C@H](CCCCN)NC(=O)[C@H](Cc1ccccc1)NC(=O)[C@H](CCCNC(=N)N)NC(=O)[C@@H](CCCNC(=N)N)NC(=O)[C@H]1CCCN1)C(N)=O
# B13: Ac-R-R-F(4-Guan)-K-R-dT-NH2 (peptide)
# peptide: Ac-RR[Phe(4-guanidino)]KR[dT]-NH2
# SMILES: CC(=O)N[C@@H](CCCNC(=N)N)C(=O)N[C@@H](CCCNC(=N)N)C(=O)N[C@@H](Cc1ccc(NC(=N)N)cc1)C(=O)N[C@@H](CCCCN)C(=O)N[C@@H](CCCNC(=N)N)C(=O)N[C@@H](C(N)=O)[C@H](C)O
# B14: dP-dR-R-A(4-Pip)-K-R-dT-NH2 (peptide)
# peptide: [dP][dR]R[Ala(piperidin-4-yl)]KR[dT]-NH2
# modifications: N-terminus assumed
# SMILES: C[C@H](O)[C@@H](NC(=O)[C@H](CCCNC(=N)N)NC(=O)[C@H](CCCCN)NC(=O)[C@H](CC1CCNCC1)NC(=O)[C@H](CCCNC(=N)N)NC(=O)[C@@H](CCCNC(=N)N)NC(=O)[C@H]1CCCN1)C(N)=O
# B15: dP-dR-R-F(4-Guan)-K-R-dT-NH2 (peptide)
# peptide: [dP][dR]R[Phe(4-guanidino)]KR[dT]-NH2
# modifications: N-terminus assumed
# SMILES: C[C@H](O)[C@@H](NC(=O)[C@H](CCCNC(=N)N)NC(=O)[C@H](CCCCN)NC(=O)[C@H](Cc1ccc(NC(=N)N)cc1)NC(=O)[C@H](CCCNC(=N)N)NC(=O)[C@@H](CCCNC(=N)N)NC(=O)[C@H]1CCCN1)C(N)=O
# Experiments:
# PACE4 [1] = target: T1, PACE4 (Homo sapiens, UniProt P29122); experiment: PACE4 enzyme inhibition experiment (fluorogenic substrate, competitive inhibition); type: biochemical; conditions: substrate pyroGlu-Arg-Val-Lys-Arg-methyl-coumaryl-7-amide 100 µM, pH 6.5, 37°C, 60 min
# T1 sequence (P29122 150-969): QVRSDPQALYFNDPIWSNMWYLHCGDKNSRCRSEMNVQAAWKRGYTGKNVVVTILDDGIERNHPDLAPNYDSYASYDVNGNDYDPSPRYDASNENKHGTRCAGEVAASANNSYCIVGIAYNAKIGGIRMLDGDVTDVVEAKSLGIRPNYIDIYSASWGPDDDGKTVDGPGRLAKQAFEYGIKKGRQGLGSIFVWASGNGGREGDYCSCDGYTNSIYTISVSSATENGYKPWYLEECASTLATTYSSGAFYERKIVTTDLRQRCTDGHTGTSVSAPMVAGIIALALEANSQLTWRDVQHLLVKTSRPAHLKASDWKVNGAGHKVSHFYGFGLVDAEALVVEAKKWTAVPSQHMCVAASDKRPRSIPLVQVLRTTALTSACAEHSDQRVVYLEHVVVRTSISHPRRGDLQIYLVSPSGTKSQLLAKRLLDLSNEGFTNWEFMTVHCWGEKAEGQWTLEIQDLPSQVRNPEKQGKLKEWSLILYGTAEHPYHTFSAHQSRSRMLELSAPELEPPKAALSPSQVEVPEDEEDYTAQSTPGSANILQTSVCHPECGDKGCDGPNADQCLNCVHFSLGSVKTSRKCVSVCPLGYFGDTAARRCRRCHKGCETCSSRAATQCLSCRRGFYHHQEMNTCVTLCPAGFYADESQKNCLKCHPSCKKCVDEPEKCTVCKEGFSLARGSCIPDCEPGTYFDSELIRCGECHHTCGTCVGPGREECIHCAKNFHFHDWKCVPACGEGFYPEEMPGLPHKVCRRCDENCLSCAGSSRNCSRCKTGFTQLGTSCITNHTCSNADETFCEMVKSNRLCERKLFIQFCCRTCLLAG
# Description: The PACE4 inhibitory peptides obtained from the above example were subjected to in vitro assay of PACE4 inhibitory effect. The specific steps were as follows: the PACE4 enzyme inhibition experiment was performed in a solution containing 20 mM Bis-Tis at pH 6.5, 1 mM CaCl2, and 1.8 mg/mL BSA. All assays were performed using pyroGlu-Arg-Val-Lys-Arg-methyl-coumaryl-7-amide (Bachem, CA) (100 µM) as the substrate. The assay was conducted at 37°C for 60 min. A Gemini EM 96-well fluorescence spectrometer (Molecular Devices, CA) (Ex: 370 nm, Em: 460 nm) was used. The PACE4 inhibitory peptide involved in the present patent was added to the test solution at different concentrations for competitive inhibition assay to determine the IC50 value of the peptide.
# PACE4 [2] = target: T2, PACE4 (UniProt P29122 150-969, limits assumed); experiment: cell-based or functional assay
# T2 sequence (looked up): T1 sequence (P29122 150-969)
Molecule,IC50 (PACE4 [1]) [nM],"IC50 (µM), PACE4 enzyme inhibition, fluorogenic substrate pyroGlu-Arg-Val-Lys-Arg-methyl-coumaryl-7-amide (PACE4 [2]) [µM]"
"C[C@H](O)[C@@H](NC(=O)[C@H](CCCNC(=N)N)NC(=O)[C@H](CCCCN)NC(=O)[C@H](Cc1ccc(C(F)(F)F)cc1)NC(=O)[C@H](CCCNC(=N)N)NC(=O)[C@@H](CCCNC(=N)N)NC(=O)[C@H]1CCCN1)C(N)=O [dP-dR-RF(4-CF3)-K-R-dT-NH2, dP-dR-R-F(4-CF3)-K-R-dT-NH2] (H-[dP][dR]R[Phe(4-CF3)]KR[dT]-NH2)",20,
C[C@H](O)[C@@H](NC(=O)[C@H](CCCNC(=N)N)NC(=O)[C@H](CCCCN)NC(=O)[C@H](Cc1ccccc1)NC(=O)[C@H](CCCNC(=N)N)NC(=O)[C@@H](CCCNC(=N)N)NC(=O)[C@@H]1CCCN1)C(N)=O [P-dR-R-F-K-R-dT-NH2] (H-P[dR]RFKR[dT]-NH2),20,
C[C@H](O)[C@@H](NC(=O)[C@H](CCCNC(=N)N)NC(=O)[C@H](CCCCN)NC(=O)[C@H](Cc1ccc(C(F)(F)F)cc1)NC(=O)[C@H](CCCNC(=N)N)NC(=O)[C@@H](CCCNC(=N)N)NC(=O)[C@@H]1CCCN1)C(N)=O [P-dR-R-F(4-CF3)-K-R-dT-NH2] (H-P[dR]R[Phe(4-CF3)]KR[dT]-NH2),20,
B1,,0.021
B2,,5
B3,,0.35
B4,,0.07
B5,,0.19
B6,,0.74
B7,,0.023
B8,,0.46
B9,,0.015
B10,,0.02
B11,,0.025
B12,,0.07
B13,,0.018
B14,,0.08
B15,,0.034
Ac-RFKRT-NH2 [Ac-R-F-K-R-T-NH2],,2
